For the data set, the target named is heat shock protein 90 (HSP90), endogenous, rat heart, P82995.

B1: epsilon protein kinase C (εPKC), endogenous, rat heart (protein)
chain: MVVFNGLLKIKICEAVSLKPTAWSLRHAVGPRPQTFLLDPYIALNVDDSRIGQTATKQKTNSPAWHDEFVTDVCNGRKIELAVFHDAPIGYDDFVANCTIQFEELLQNGSRHFEDWIDLEPEGKVYVIIDLSGSSGEAPKDNEERVFRERMRPRKRQGAVRRRVHQVNGHKFMATYLRQPTYCSHCRDFIWGVIGKQGYQCQVCTCVVHKRCHELIITKCAGLKKQETPDEVGSQRFSVNMPHKFGIHNYKVPTFCDHCGSLLWGLLRQGLQCKVCKMNVHRRCETNVAPNCGVDARGIAKVLADLGVTPDKITNSGQRRKKLAAGAESPQPASGNSPSEDDRSKSAPTSPCDQELKELENNIRKALSFDNRGEEHRASSSTDGQLASPGENGEVRQGQAKRLGLDEFNFIKVLGKGSFGKVMLAELKGKDEVYAVKVLKKDVILQDDDVDCTMTEKRILALARKHPYLTQLYCCFQTKDRLFFVMEYVNGGDLMFQIQRSRKFDEPRSGFYAAEVTSALMFLHQHGVIYRDLKLDNILLDAEGHSKLADFGMCKEGILNGVTTTTFCGTPDYIAPEILQELEYGPSVDWWALGVLMYEMMAGQPPFEADNEDDLFESILHDDVLYPVWLSKEAVSILKAFMTKNPHKRLGCVAAQNGEDAIKQHPFFKEIDWVLLEQKKMKPPFKPRIKTKRDVNNFDQDFTREEPILTLVDEAIVKQINQEEFKGFSYFGEDLMP
Turning to B1, the “CPK release into the effluent during reperfusion, hearts perfused with ψεHSP90 peptide (1 µM)” value is given as “perfusion with ψεHSP90 peptide decreased CPK release by 47%”.

The record behind these values is patent publication US20100048482.
